According to PMC6509256:

Key:
[1] = biological target: PcVps75ΔCM-SeMet (residues 1-223, E56 and N127 mutated to methionine, selenomethionine-labeled), cry (Pneumocystis carinii); test: crystal structure
[2] = biological target: PcVps75ΔC (residues 1-223), crystallised as a dimer (Pneumocystis carinii); test: crystal structure

PcVps75ΔCM-SeMet (residues 1-223, E56 and N127 mutated to methionine, selenomethionine-labeled), cry (domain or fragment)
stoichiometry N [1]: 4

PcVps75ΔC (residues 1-223), crystallised as a dimer (domain or fragment)
stoichiometry N [2]: 2
